Experimental data: US20210139932A1

Legend:
[1] = molecular target: human L-selectin (human) (UniProt P14151); assay: cell-based or functional assay
[2] = molecular target: CD34 (human) (UniProt P28906); assay: cell-based or functional assay
UniProt P28906, sequence (P28906 32-385): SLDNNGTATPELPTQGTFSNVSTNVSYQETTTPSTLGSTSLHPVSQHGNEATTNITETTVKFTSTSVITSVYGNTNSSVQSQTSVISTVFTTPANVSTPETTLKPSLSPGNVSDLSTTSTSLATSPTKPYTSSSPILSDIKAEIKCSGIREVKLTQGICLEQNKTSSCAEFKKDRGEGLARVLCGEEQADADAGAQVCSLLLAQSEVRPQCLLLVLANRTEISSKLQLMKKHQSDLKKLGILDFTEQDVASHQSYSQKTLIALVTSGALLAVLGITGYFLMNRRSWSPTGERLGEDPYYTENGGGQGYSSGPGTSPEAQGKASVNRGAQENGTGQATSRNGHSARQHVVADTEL

Substance | reduction of the L-selectin enhanced amount of CD34+ transduction [1] [%] | transduction of cytokine-stimulated CD34+ cells (% eGFP+ cells) [2] [fold]
anti-human L-selectin antibody (clone DREG56; Thermo Fisher) | 79 | 
human L-selectin (from UniProt P14151 39-372) (ligand) |  | 2
